Reference: the supplement of paper PMC9112550, “Optimization of the antimicrobial peptide Bac7 by deep mutational scanning” (BMC Biology, 2022)

tested on: Escherichia coli TOP10; assay: shrunken log2 fold change of peptide-encoding DNA abundance (4.5 h post-induction vs induction); higher = less antimicrobial activity (less host growth inhibition); details: time post-induction: 4.5 h; library: site-saturation at positions 5, 18, 19, 20
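Further: peptides expressed intracellularly from a pBAD plasmid library in pooled LB shake-flask culture, induced with 0.3% L-arabinose, DNA abundance read by NGS, three biological replicates, DESeq2 with apeglm shrinkage.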

Row | Sequence | shrunken log2 fold change
1 | RRIRCRPPRLPRPRPRPFSRPRP | -0.332
2 | RRIRHRPPRLPRPRPRPQQTPRP | 0.0173
3 | RRIRLRPPRLPRPRPRPYFCPRP | -0.34
4 | RRIRPRPPRLPRPRPRPTPWPRP | 0.427
5 | RRIRHRPPRLPRPRPRPFWLPRP | 0.137
6 | RRIRPRPPRLPRPRPRPQHVPRP | 0.00743
7 | RRIRYRPPRLPRPRPRPRVYPRP | -0.847
8 | RRIRYRPPRLPRPRPRPPKNPRP | -0.164
9 | RRIRLRPPRLPRPRPRPIGDPRP | -0.118
10 | RRIRMRPPRLPRPRPRPKRTPRP | 3.45
11 | RRIRERPPRLPRPRPRPQLRPRP | -0.00323
12 | RRIRGRPPRLPRPRPRPGGRPRP | 1.09
13 | RRIRWRPPRLPRPRPRPNDWPRP | 0.00443
14 | RRIRLRPPRLPRPRPRPRLAPRP | 0.624
15 | RRIRERPPRLPRPRPRPAYTPRP | -0.284
16 | RRIRERPPRLPRPRPRPKNQPRP | -0.281
17 | RRIRIRPPRLPRPRPRPPQGPRP | 0.123
18 | RRIRSRPPRLPRPRPRPISEPRP | -0.0465
19 | RRIRYRPPRLPRPRPRPTCWPRP | 0.0987
20 | RRIRPRPPRLPRPRPRPCHEPRP | -0.316
21 | RRIRWRPPRLPRPRPRPARSPRP | 0.252
22 | RRIRFRPPRLPRPRPRPRAWPRP | 0.409
23 | RRIRTRPPRLPRPRPRPTYEPRP | -0.174
24 | RRIRDRPPRLPRPRPRPGVQPRP | -0.0372
25 | RRIRVRPPRLPRPRPRPPQVPRP | 0.377

Row | Sequence | shrunken log2 fold change
26 | RRIRPRPPRLPRPRPRPKPHPRP | 0.294
27 | RRIRHRPPRLPRPRPRPWEPPRP | -0.0767
28 | RRIRPRPPRLPRPRPRPVTIPRP | -0.344
29 | RRIRQRPPRLPRPRPRPQYKPRP | -0.314
30 | RRIRCRPPRLPRPRPRPCKLPRP | -0.896
31 | RRIRMRPPRLPRPRPRPHGSPRP | 0.0248
32 | RRIRNRPPRLPRPRPRPRFGPRP | 0.399
33 | RRIRNRPPRLPRPRPRPGNYPRP | 0.224
34 | RRIRYRPPRLPRPRPRPHTDPRP | -0.368
35 | RRIRKRPPRLPRPRPRPNSTPRP | -0.0291
36 | RRIRKRPPRLPRPRPRPYHNPRP | -0.227
37 | RRIRDRPPRLPRPRPRPAKFPRP | 0.0399
38 | RRIRKRPPRLPRPRPRPTQGPRP | 0.909
39 | RRIRGRPPRLPRPRPRPIYFPRP | -0.533
40 | RRIRKRPPRLPRPRPRPMCEPRP | 0.12
41 | RRIRNRPPRLPRPRPRPNNRPRP | 0.113
42 | RRIRKRPPRLPRPRPRPSIGPRP | -0.0755
43 | RRIRCRPPRLPRPRPRPQVTPRP | -0.102
44 | RRIRFRPPRLPRPRPRPHDKPRP | -0.00198
45 | RRIRCRPPRLPRPRPRPKVCPRP | 0.0885
46 | RRIRTRPPRLPRPRPRPDPSPRP | -0.0208
47 | RRIRKRPPRLPRPRPRPDYPPRP | -0.0226
48 | RRIRPRPPRLPRPRPRPNGPPRP | -0.027
49 | RRIRPRPPRLPRPRPRPVMIPRP | -0.251
50 | RRIRARPPRLPRPRPRPGLEPRP | 0.629

Row | Sequence | shrunken log2 fold change
51 | RRIRERPPRLPRPRPRPSSPPRP | -0.824
52 | RRIRIRPPRLPRPRPRPMWAPRP | -0.0316
53 | RRIRWRPPRLPRPRPRPFTFPRP | -0.326
54 | RRIRKRPPRLPRPRPRPYSGPRP | -0.839
55 | RRIRKRPPRLPRPRPRPKTGPRP | 0.821
56 | RRIRARPPRLPRPRPRPSNHPRP | -0.089
57 | RRIRQRPPRLPRPRPRPMVRPRP | -0.17
58 | RRIRPRPPRLPRPRPRPCNEPRP | -0.16
59 | RRIRCRPPRLPRPRPRPRGVPRP | 0.69
60 | RRIRNRPPRLPRPRPRPETKPRP | 0.384
61 | RRIRCRPPRLPRPRPRPYSQPRP | -0.781
62 | RRIRMRPPRLPRPRPRPNLGPRP | -0.0136
63 | RRIRGRPPRLPRPRPRPVCHPRP | 0.54
64 | RRIRQRPPRLPRPRPRPATIPRP | -0.123
65 | RRIRTRPPRLPRPRPRPKSAPRP | 0.221
66 | RRIRARPPRLPRPRPRPNFFPRP | 0.349
67 | RRIRVRPPRLPRPRPRPVTGPRP | -0.233
68 | RRIRMRPPRLPRPRPRPTIAPRP | 0.26
69 | RRIRRRPPRLPRPRPRPRFIPRP | 0.00289
70 | RRIRCRPPRLPRPRPRPDGIPRP | -0.0101
71 | RRIRARPPRLPRPRPRPDEDPRP | 2.09
72 | RRIRYRPPRLPRPRPRPMSEPRP | 0.0461
73 | RRIRWRPPRLPRPRPRPFYRPRP | -0.179
74 | RRIRARPPRLPRPRPRPMPRPRP | 0.827
75 | RRIRNRPPRLPRPRPRPIQSPRP | -0.216

Row | Sequence | shrunken log2 fold change
76 | RRIRMRPPRLPRPRPRPTDYPRP | 0.166
77 | RRIRYRPPRLPRPRPRPIHSPRP | -0.0447
78 | RRIRMRPPRLPRPRPRPLWAPRP | 0.509
79 | RRIRCRPPRLPRPRPRPHDYPRP | -0.482
80 | RRIRVRPPRLPRPRPRPQHKPRP | -0.483
81 | RRIRHRPPRLPRPRPRPSIKPRP | -0.501
82 | RRIRDRPPRLPRPRPRPYDQPRP | -0.473
83 | RRIRRRPPRLPRPRPRPLCTPRP | 0.354
84 | RRIRCRPPRLPRPRPRPVVPPRP | -0.168
85 | RRIRARPPRLPRPRPRPAGKPRP | 0.164
86 | RRIRRRPPRLPRPRPRPHNMPRP | -0.697
87 | RRIRQRPPRLPRPRPRPWLHPRP | 0.0098
88 | RRIRIRPPRLPRPRPRPYNNPRP | -0.462
89 | RRIRFRPPRLPRPRPRPSMIPRP | -0.603
90 | RRIRGRPPRLPRPRPRPEHCPRP | 0.549
91 | RRIRVRPPRLPRPRPRPIEFPRP | 0.0379
92 | RRIRYRPPRLPRPRPRPYYSPRP | 0.0106
93 | RRIRLRPPRLPRPRPRPYIYPRP | -1.24
94 | RRIRLRPPRLPRPRPRPRTDPRP | -0.0417
95 | RRIRDRPPRLPRPRPRPNCGPRP | 0.387
96 | RRIRRRPPRLPRPRPRPLSGPRP | 0.379
97 | RRIRPRPPRLPRPRPRPAARPRP | 0.727
98 | RRIRERPPRLPRPRPRPKRLPRP | 0.0323
99 | RRIRFRPPRLPRPRPRPWSKPRP | -0.079
100 | RRIRMRPPRLPRPRPRPYKDPRP | -0.947

Row | Sequence | shrunken log2 fold change
101 | RRIRKRPPRLPRPRPRPSDKPRP | -0.41
102 | RRIRLRPPRLPRPRPRPANPPRP | -0.0638
103 | RRIRNRPPRLPRPRPRPLHQPRP | -0.112
104 | RRIRERPPRLPRPRPRPFEEPRP | -0.217
105 | RRIRTRPPRLPRPRPRPKDMPRP | -0.0311
106 | RRIRFRPPRLPRPRPRPLMGPRP | -0.18
107 | RRIRSRPPRLPRPRPRPICDPRP | 0.228
108 | RRIRDRPPRLPRPRPRPTALPRP | 0.573
109 | RRIRGRPPRLPRPRPRPFIQPRP | -0.382
110 | RRIRERPPRLPRPRPRPSMVPRP | -0.86
111 | RRIRDRPPRLPRPRPRPIKMPRP | 0.0713
112 | RRIRCRPPRLPRPRPRPMGIPRP | 0.00755
113 | RRIRMRPPRLPRPRPRPAHYPRP | -0.248
114 | RRIRLRPPRLPRPRPRPVHHPRP | -0.105
115 | RRIRYRPPRLPRPRPRPDLDPRP | -0.181
116 | RRIRTRPPRLPRPRPRPCRVPRP | -0.346
117 | RRIRIRPPRLPRPRPRPWICPRP | -0.132
118 | RRIRVRPPRLPRPRPRPVWHPRP | 0.119
119 | RRIRHRPPRLPRPRPRPNFKPRP | -0.189
120 | RRIRGRPPRLPRPRPRPAIKPRP | 0.534
121 | RRIRSRPPRLPRPRPRPRNTPRP | -0.411
122 | RRIRIRPPRLPRPRPRPWMNPRP | -0.238
123 | RRIRERPPRLPRPRPRPMQYPRP | -0.271
124 | RRIRIRPPRLPRPRPRPEYQPRP | 0.00783
125 | RRIRHRPPRLPRPRPRPHMWPRP | 0.104

Row | Sequence | shrunken log2 fold change
126 | RRIRQRPPRLPRPRPRPFMCPRP | -0.371
127 | RRIRNRPPRLPRPRPRPMLLPRP | -0.0366
128 | RRIRERPPRLPRPRPRPIRAPRP | 0.0262
129 | RRIRDRPPRLPRPRPRPHDTPRP | -0.123
130 | RRIRSRPPRLPRPRPRPTYWPRP | -0.123
131 | RRIRLRPPRLPRPRPRPNVFPRP | -0.301
132 | RRIRTRPPRLPRPRPRPMVEPRP | 0.0887
133 | RRIRIRPPRLPRPRPRPCPCPRP | -0.493
134 | RRIRYRPPRLPRPRPRPSKVPRP | -1.04
135 | RRIRPRPPRLPRPRPRPCMVPRP | -0.423
136 | RRIRDRPPRLPRPRPRPHPFPRP | 0.0528
137 | RRIRYRPPRLPRPRPRPVWQPRP | -0.288
138 | RRIRARPPRLPRPRPRPQLPPRP | 0.327
139 | RRIRFRPPRLPRPRPRPKVHPRP | 0.146
140 | RRIRRRPPRLPRPRPRPAKIPRP | 0.117
141 | RRIRFRPPRLPRPRPRPSINPRP | -0.625
142 | RRIRMRPPRLPRPRPRPVEPPRP | 0.207
143 | RRIRERPPRLPRPRPRPWMAPRP | -0.0227
144 | RRIRERPPRLPRPRPRPSLPPRP | -0.19
145 | RRIRTRPPRLPRPRPRPYTQPRP | -0.434
146 | RRIRCRPPRLPRPRPRPIGGPRP | -0.17
147 | RRIRCRPPRLPRPRPRPDQSPRP | 0.112
148 | RRIRDRPPRLPRPRPRPDVHPRP | 0.244
149 | RRIRIRPPRLPRPRPRPWILPRP | -0.349
150 | RRIRGRPPRLPRPRPRPKRHPRP | 1
